This is an account of results in doi:10.1101/2023.02.19.529138 (bioRxiv, 2023).

By stoichiometry N is commonly meant a count of units in the complex or per binding partner.

What all share (test): single-molecule photobleaching step analysis
In one data set the target is LeuT (Aquifex aeolicus).
Data set [1] deals with the molecule itself.
Data set [2] has as its target T1, KcsA (Streptomyces lividans), P0A334.
T1 chain: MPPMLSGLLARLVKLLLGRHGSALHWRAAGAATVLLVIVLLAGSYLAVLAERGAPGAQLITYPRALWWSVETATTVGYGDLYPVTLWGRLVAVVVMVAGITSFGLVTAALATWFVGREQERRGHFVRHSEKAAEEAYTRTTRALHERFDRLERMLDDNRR
The note with it: remark: other sources report otherwise.

In the data set with LeuT (Aquifex aeolicus), LeuT (natural protein) showed a percent dimer of 75% and a percent monomer of 14%.

B1: SemiSWEET (natural protein)
chain: MALIERIGKALEPLMLVMGLISPLATMPQLYKLYVSHSEHALGLSLTTWLLYSFIALLWTIYGIYHKNPTIWVGNCLGFLMYVAMVVGIIAHTGGTY
On to B1, for which the “stoichiometry N” value in data set [1] was found to be 2.

B2: KcsA, P0A334 1-160 (natural protein)
chain: T1 chain
In data set [2], B2 displayed a stoichiometry N of 4.
